Test results as given in patent publication US6214868A, “Method for preventing or treating coronary restenosis with catechin” (Sam-A Pharm. Co., Ltd., priority 2000, dated 2001).

Legend:
Assay type in all cases: cell-based
rat VSMCs = test: Inhibition of VSMC growth, 3H-thymidine DNA incorporation, in the presence of PDGF-BB; details: in words; 50 ng/ml PDGF-BB, control data
Method: Each rat was suffocated with CO2, and its chest was disinfected and incised to remove the arteriae aorta. All operative apparatus and glass articles were autoclaved and all operations were conducted on a clean bench. The arteriae aorta was dipped in physiological salt solution(PSS) and its adipose tissues were removed. The resulting arteriae aorta was treated with 0.2% collagenase in an incubator maintained at 37° C. for 30 minutes. Its endothelium and adventitia were removed and the resulting arteriae aorta was ground up. A complete DMEM (DMEM containing 10% FBS, an antibiotic and glutamine) containing 0.2% collagenase was added thereto and the resulting mixture was kept at 37° C. for 4 hours while shaking with an orbital shaker.
The resulting mixture was centrifuged at 1,500×g for 5 minutes to remove the collagenase and the cell precipitate was suspended in an appropriate amount of complete DMEM. […]
The wells were washed twice with a serum-free medium, Hunger medium(Gibco), and fresh Hunger medium was added thereto. […] A 50 μl portion of the resulting reaction mixture was subjected to protein quantification. Further, a 100 μl portion of the resulting reaction mixture was added to 5 ml of a cocktail solution to measure the radioactivity, thereby determining the amount of ^3 H-thymidine incorporated into the cell. […]

p44^mapk = test: Phosphorylation of p44^mapk in rat VSMCs (western blotting); details: in words; western blot
Method: (§1) The resulting culture was incubated for 24 hours. 50 ng/ml of PDGF-BB was added thereto and kept for 5 minutes. […] The above procedure was also repeated without PDGF-BB treatment.
(§2) The VSMC was lysed and the VSMC lysate(corresponding amount to 70 μg proteins) was subjected to SDS-PAGE. The proteins separated on the gel was transferred to a nitrocellulose membrane and the membrane was saturated with Tris buffered saline(TBS) containing 3% milk protein. A primary antibody(Promega, dilution ratio: 1:5,000) for catalytically activated p44^mapk /p42^mapk whose threonine and tyrosine residues are phosphorylated, was added thereto and kept over night. The membrane was washed three times with TBS containing 0.05% Tween 20. The membrane was reacted with a horseradish peroxidase-conjugated anti-IgG secondary antibody and developed using Amersham ECL kit. Linearity of MAPK concentration-ECL signal correlation was examined using standard p42, a recombinant, activated MAPK(Upstate Biotechnology), and serially diluted artery tissue homogenate. Bands on the X-ray film were quantified using Molecular Dynamics personal laser densitometer.

p42^mapk = test: Phosphorylation of p42^mapk in rat VSMCs (western blotting); details: in words; western blot
Method: as §1, §2

B1: PDGF-BB: platelet derived growth factor(PDGF)-BB (protein, UniProt P01127 82-190, looked up)
Platelet-derived growth …: SLGSLTIAEPAMIAECKTRTEVFEISRRLIDRTNANFLVWPPCVEVQRCSGCCNNRNVQCRPTQVQLRPVQVRKIEIVRKKPIFKKATVTLEDHLACKCETVAAARPVT
modifications: BB homodimer
Which results are given for B1?
VSMC growth on PDGF-BB treatment (rat VSMCs): greatly enhances the VSMC growth; phosphorylated p44^mapk /p42^mapk band density (p44) (p44^mapk): enhanced density as compared with the blank; phosphorylated p44^mapk /p42^mapk band density (p42) (p42^mapk): enhanced density as compared with the blank
